# Assay results: patent US20110059504A1 (GENERAL HOSPITAL, published 2011)
# T1: human myostatin (human, UniProt O14793 267-375, biotinylated in selections and radioactive assays (site not stated))
# T1 construct: Phage ELISA used both unbiotinylated and biotinylated myostatin; also called biotinylated human myostatin; myostatin-biotin
# T1 sequence (looked up): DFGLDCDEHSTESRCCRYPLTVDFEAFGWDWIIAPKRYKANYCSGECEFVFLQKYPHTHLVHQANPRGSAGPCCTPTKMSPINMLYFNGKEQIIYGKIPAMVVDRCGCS
# Target: T1, human myostatin
# Experiment: radioactive equilibrium binding assay
# Experimental: Affinities of selected F13β2 binders to biotinylated myostatin were determined in radioactive equilibrium binding assay (FIGS. 11A and 11B; Table 3). ³⁵S-labeled binder proteins from selection pools and single clones were produced in vitro in a rabbit reticulocyte lysate translation kit (Ambion) and purified on M2-agarose (Sigma). Varying concentrations of biotinylated human myostatin (0-100 nM) or other proteins (protein 1: 100 nM; peptide 1: 250 nM; protein 2: 50 nM) were incubated with a constant concentration of the purified binder protein (1 or 2 nM) at 30° C. for 30 min in buffer B (1×PBS, 0.02% Triton X-100 [pH 7.4]). The receptor-binder complexes were captured by using 25 μl of M280 or Protein A (Dynal) (protein 2) magnetic beads for 10 min at room temperature on a Kingfisher instrument (Thermo Fisher Scientific). The beads were washed five times with 100 μl buffer B, and the amount of ³⁵S-methionine remained on the beads was measured by scintillation counting. Data were analyzed by using the GraphPad Prism software (GraphPad Software, Inc., San Diego, Calif.), fitted with a one-site, nonlinear binding equation. For inhibition assay the binding of ³⁵S-labeled proteins to 20 or 25 nM of biotinylated human myostatin was performed in the presence of varying concentrations of inhibitor (human activin receptor IIB/Fc chimera (R&D Systems, Minneapolis, Minn.) (0-250 nM); protein 1 (100 nM), peptide 1 (250 nM), protein 2 (50 nM); proteins, produced in E. coli, M17, M7, M29, M21, M1-1, WT F13β2 (500 nM)).
Binder,B max,Kd
"39973-D2 (designed binder, group M3-A) MTIPEIIIKVRGTQVVGSDMTVIVEFYFSPGARLATVWVHLDGPGVTRPMKKMFHSIYVPFWVQWEEVVRPWVSGHRKLIASMTTTVQGHVYGELDVQIQRRDYKDDDDK",7.66%,32.9 nM
"39633-C1 (designed binder, group M1-A50; V91L; also called M17 (clone ID)) MTIPEIIIKVRGTQVVGSDMTVIVEFTNPFKETLRSVWVHLDGPGVTRPMKKMFREIPPKTTVQWEEVVRPWVSGHRKLIASMRTQYLIHLYGELDVQIQRRDYKDDDDK",74.8%,39.9 nM
"39633-G5 (designed binder, group M1-A50; V91L) MTIPEIIIKVRGTQVVGSDMTVIVEFTNPFKETLRSVWVHLDGPGVTRPMKKMFSEIRPNSTVQWEEVVRPWVSGHRKLIASMRTQYLIHLYGELDVQIQRRDYKDDDDK",64.1%,33.6 nM
"39885-A1 (designed binder, group M1-A; also called M1-1 (clone ID)) MTIPEIIIKVRGTQVVGSDMTVIVEFTNPLKETLRNVWVHLDGPGVTRPMKKMFPAIPMNHKVQWEEVVRPWVSGHRKLIASMPQLFHIHVYGELDVQIQRRDYKDDDDK",67.3%,21.8 nM
"39885-D11 (designed binder, group M2-A) MTIPEIIIKVRGTQVVGSDMTVIVEFTNPLKETLRNVWVHLDGPGVTRPMKKMFPAIPMNHKVQWEEVVRPWVSGHRKLIASMINHFYKHVYGELDVQIQRRDYKDDDDK",22.3%,41 nM
"39908-H10 (designed binder, group M2-A50; also called M4 (clone ID)) MTIPEIIIKVRGTQVVGSDMTVIVEFTNPFKETLRSVWVHLDGPGVTRPMKKMFREIPPKTTVQWEEVVRPWVSGHRKLIASMPSLLHLHVYGELDVQIQRRDYKDDDDK",47.3%,29.7 nM
"39885-G8 (designed binder, group M1-A; also called M10-3 (clone ID)) MTIPEIIIKVRGTQVVGSDMTVIVEFTNPLKETLRNVWVHLDGPGVTRPMKKMFPTIPMNHKVQWEEVVRPWVSGHRKLIASMPQLFHIHVYGELDVQIQRRDYKDDDDK",69.2%,30.8 nM
"39908-G12 (designed binder, group M2-A50; also called M10 (clone ID)) MTIPEIIIKVRGTQVVGSDMTVIVEFTNPFKETLRSVWVHLDGPGVTRPMKKMFSEIRPNSTVQWEEVVRPWVSGHRKLIASMPSLLHLHVYGELDVQIQRRDYKDDDDK",34.1%,25.6 nM
"39973-F10 (designed binder, group M1-A) MTIPEIIIKVRGTQVVGSDMTVIVEFTNPLKETLRNVWVHLDGPGVTRPMKKMFATIPPYLPVQWEEVVRPWVSGHRKLIASMPQLIHLHVYGELDVQIQRRDYKDDDDK",68%,28.6 nM
"39633-A1 (designed binder, group M4-A50) MTIPEIIIKVRGTQVVGSDMTVIVEFTNPFKETLRSVWVHLDGPGVTRPMKKMFREIPPNTTVQWEEVVRPWVSGHRKLIASMPTHHLLHVYGELDVQIQRRDYKDDDDK",63.9%,25.5 nM
"39885-G5 (designed binder, group M1-A; also called M8-L (clone ID)) MTIPEIIIKVRGTQVVGSDMTVIVEFTNPLKETLRNVWVHLDGPGVTRPMKKMFPAIPYLSYVQWEEVVRPWVSGHRKLIASMPQLHHLHVYGELDVQIQRRDYKDDDDK",59.4%,28.5 nM
"39885-F8 (designed binder, group M1-A; also called M7-L (clone ID)) MTIPEIIIKVRGTQVVGSDMTVIVEFTNPLKETLRNVWVHLDGPGVTRPMKKMFPAIPMNHKVQWEEVVRPWVSGHRKLIASMPQLFHLHVYGELDVQIQRRDYKDDDDK",98.6%,28.1 nM
"39633-D3 (V39M) (designed binder, group M2-A50; V39M) MTIPEIIIKVRGTQVVGSDMTVIVEFSNPFKETLRNVWMHLDGPGVTRPMKKMFSEIRPNSTVQWEEVVRPWVSGHRKLIASMPSLLHLHVYGELDVQIQRRDYKDDDDK",65.8%,26.2 nM
"39885-C11 (designed binder, group M2-A) MTIPEIIIKVRGTQVVGSDMTVIVEFTNPLKETLRNVWVHLDGPGVTRPMKKMFPAIPMNHKVQWEEVVRPWVSGHRKLIASMINYFYKHVYGELDVQIQRRDYKDDDDK",18.8%,41.6 nM
"39633-E4 (designed binder, group M2-A50; also called M019 (clone ID)) MTIPEIIIKVRGTQVVGSDMTVIVEFSNPFKETLRNVWVHLDGPGVTRPMKKMFSEIRPDSTVQWEEVVRPWVSGHRKLIASMPSLLHLHVYGELDVQIQRRDYKDDDDK",60%,27.8 nM
"39885-C1 (designed binder, group M2-A) MTIPEIIIKVRGTQVVGSDMTVIVEFTNPLKETLRNVWVHLDGPGVTRPMKKMFPAIPMNHKVQWEEVVRPWVSGHRKLIASMLNHFYKHVYGELDVQIQRRDYKDDDDK",33.3%,140 nM
"39885-B5 (F26V) (designed binder, group M1-A; F26V; also called M2-1 (clone ID)) MTIPEIIIKVRGTQVVGSDMTVIVEVTNPLKETLRNVWVHLDGPGVTRPMKKMFPAIPMNHKVQWEEVVRPWVSGHRKLIASMPQLFHIHVYGELDVQIQRRDYKDDDDK",72.2%,25.1 nM
"39908-G4 (designed binder, group M2-A50; also called M7 (clone ID)) MTIPEIIIKVRGTQVVGSDMTVIVEFSNPFKETLRNVWVHLDGPGVTRPMKKMFSEIRPNSTVQWEEVVRPWVSGHRKLIASMPSLLHLHVYGELDVQIQRRDYKDDDDK",49%,28.4 nM

# Continued by falling Kd, values first:
B max,Kd,Binder
61.6%,24.8 nM,"39633-H6 (M50V) (designed binder, group M2-A50; M50V) MTIPEIIIKVRGTQVVGSDMTVIVEFTNPFKETLRSVWVHLDGPGVTRPVKKMFREIPPKTTVQWEEVVRPWVSGHRKLIASMPSLLHLHVYGELDVQIQRRDYKDDDDK"
57.6%,24.7 nM,"39885-D8 (K9R) (designed binder, group M1-A; K9R; also called M5-2 (clone ID)) MTIPEIIIRVRGTQVVGSDMTVIVEFTNPLKETLRNVWVHLDGPGVTRPMKKMFPAIPMDHKVQWEEVVRPWVSGHRKLIASMPQLFHIHVYGELDVQIQRRDYKDDDDK"
62.7%,24.1 nM,"39885-F7 (designed binder, group M1-A) MTIPEIIIKVRGTQVVGSDMTVIVEFTNPLKETLRNVWVHLDGPGVTRPMKKMFPTIPMNHKVQWEEVVRPWVSGHRKLIASMPHLFHIHVYGELDVQIQRRDYKDDDDK"
72%,22.8 nM,"39973-C10 (designed binder, group M1-A) MTIPEIIIKVRGTQVVGSDMTVIVEFTNPLKETLRNVWVHLDGPGVTRPMKKMFPTISRFKRVQWEEVVRPWVSGHRKLIASMPQLQHLHVYGELDVQIQRRDYKDDDDK"
68.4%,17.4 nM,"39885-C7 (designed binder, group M1-A; also called M3-1 (clone ID)) MTIPEIIIKVRGTQVVGSDMTVIVEFTNPLKETLRNVWVHLDGPGVTRPMKKMFRAIPMNHKVQWEEVVRPWVSGHRKLIASMPQLFHIHVYGELDVQIQRRDYKDDDDK"
73.7%,15.4 nM,"39885-F10 (S82C) (designed binder, group M1-A; S82C) MTIPEIIIKVRGTQVVGSDMTVIVEFTNPLKETLRNVWVHLDGPGVTRPMKKMFPAIPMNHKVQWEEVVRPWVSGHRKLIACMPQLFHIHVYGELDVQIQRRDYKDDDDK"
24.1%,14.1 nM,"39885-H9 (designed binder, group M2-A) MTIPEIIIKVRGTQVVGSDMTVIVEFTNPLKETLRNVWVHLDGPGVTRPMKKMFPAIPMNHKVQWEEVVRPWVSGHRKLIASMINYFYNHVYGELDVQIQRRDYKDDDDK"
82.4%,13.6 nM,"39888-A11 (D42N) (designed binder, group M1-A; D42N; also called M14-1 (clone ID); 39888-All(D42N)) MTIPEIIIKVRGTQVVGSDMTVIVEFTNPLKETLRNVWVHLNGPGVTRPMKKMFPAIPMNHKVQWEEVVRPWVSGHRKLIASMPQLFHIHVYGELDVQIQRRDYKDDDDK"
6.74%,11.2 nM,"39633-D2 (designed binder, group M2-A50) MTIPEIIIKVRGTQVVGSDMTVIVEFTNLMKETLRNVWVHLDGPGVTRPMKKMFSEIRPNSTVQWEEVVRPWVSGHRKLIASMPSLLHLHVYGELDVQIQRRDYKDDDDK"
83.1%,9.99 nM,"39888-G5 (S82I) (designed binder, group M1-A; S82I) MTIPEIIIKVRGTQVVGSDMTVIVEFTNPLKETLRNVWVHLDGPGVTRPMKKMFPAIPMNHKVQWEEVVRPWVSGHRKLIAIMPQLFHIHVYGELDVQIQRRDYKDDDDK"
1.19%,7.09 nM,"39888-B7 (designed binder, group M3-A) MTIPEIIIKVRGTQVVGSDMTVIVEFTNPLKETLRNVWVHLDGPGVTRPMKKMFPAIPMNHKVQWEEVVRPWVSGHRKLIASMNSSSNQHVYGELDVQIQRRDYKDDDDK"
